# Source: the Human Domainome abundance scans (Beltran et al. 2025)
# ± gives the uncertainty stated by the source.
# B1: Mineralocorticoid receptor, residues 600 to 675; numbered along this chain, P08235 (parent)
# chain: SKICLVCGDEASGCHYGVVTCGSCKVFFKRAVEGQHNYLCAGRNDCIIDKIRRKNCPACRLQKCLQAGMNLGARKS
# Variants of: B1
# Test: abundance fitness (aPCA) (normalised: wild type 0, dead -1); higher = more abundant; growth selection in yeast, the domain comes from the species named
# Settings: Homo sapiens
row,Variant,abundance fitness
1,H15F,0.023 ± 0.1
2,H15I,-0.131 ± 0.11
3,H15Y,-0.057 ± 0.085
4,H15D,-0.119 ± 0.073
5,H15R,-0.136 ± 0.039
6,H15W,0.029 ± 0.056
7,H15C,-0.152 ± 0.078
8,H15L,-0.096 ± 0.043
9,H15E,-0.033 ± 0.059
10,H15P,-0.066 ± 0.065
11,H15Q,-0.12 ± 0.056
12,H15N,-0.092 ± 0.09
13,H15M,-0.059 ± 0.055
14,H15S,-0.075 ± 0.053
15,H15T,-0.11 ± 0.052
16,H15K,0.032 ± 0.063
17,H15V,-0.103 ± 0.045
18,T20W,-0.325 ± 0.061
19,T20C,-0.062 ± 0.1
20,T20I,-0.082 ± 0.075
21,T20S,-0.017 ± 0.049
22,T20E,-0.522 ± 0.1
23,T20M,-0.194 ± 0.082
24,T20D,-0.49 ± 0.24

row,Variant,abundance fitness
1,T20H,-0.186 ± 0.094
2,T20F,-0.351 ± 0.25
3,T20V,0.032 ± 0.046
4,T20A,-0.072 ± 0.051
5,T20K,-0.727 ± 0.22
6,T20Q,-0.244 ± 0.081
7,T20R,-0.75 ± 0.085
8,T20L,-0.17 ± 0.048
9,T20P,-0.691 ± 0.13
10,T20N,0.064 ± 0.11
11,T20G,-0.067 ± 0.046
12,Q35A,-0.058 ± 0.044
13,Q35W,-0.205 ± 0.057
14,Q35H,-0.022 ± 0.051
15,Q35D,0.056 ± 0.057
16,Q35I,-0.015 ± 0.056
17,Q35V,-0.079 ± 0.035
18,Q35R,-0.002 ± 0.038
19,Q35N,-0.058 ± 0.049
20,Q35S,-0.028 ± 0.038
21,Q35C,-0.073 ± 0.05
22,Q35F,-0.129 ± 0.055
23,Q35K,0.011 ± 0.06
24,Q35T,-0.077 ± 0.043

row,Variant,abundance fitness
1,Q35G,-0.023 ± 0.042
2,Q35M,-0.121 ± 0.056
3,Q35Y,-0.112 ± 0.056
4,Q35E,0.069 ± 0.058
5,Q35P,-0.013 ± 0.047
6,Q35L,-0.094 ± 0.038
7,Y16G,-0.061 ± 0.048
8,Y16H,-0.022 ± 0.082
9,Y16R,-0.075 ± 0.039
10,Y16A,-0.039 ± 0.046
11,Y16V,0.013 ± 0.043
12,Y16C,-0.054 ± 0.083
13,Y16W,0.024 ± 0.053
14,Y16K,-0.081 ± 0.057
15,Y16L,-0.104 ± 0.039
16,Y16T,-0.027 ± 0.049
17,Y16F,-0.053 ± 0.093
18,Y16Q,-0.068 ± 0.057
19,Y16N,-0.147 ± 0.11
20,Y16D,-0.025 ± 0.099
21,Y16S,-0.097 ± 0.049
22,Y16P,-0.125 ± 0.069
23,Y16I,-0.213 ± 0.099
24,F28C,-0.364 ± 0.21

row,Variant,abundance fitness
1,F28D,-0.782 ± 0.33
2,F28H,-0.445 ± 0.33
3,F28W,0.037 ± 0.055
4,F28A,-0.263 ± 0.048
5,F28Q,-0.582 ± 0.14
6,F28P,-1.21 ± 0.49
7,F28M,-0.101 ± 0.077
8,F28K,-0.856 ± 0.24
9,F28V,-0.322 ± 0.048
10,F28G,-0.647 ± 0.073
11,F28Y,-0.095 ± 0.18
12,F28E,-0.749 ± 0.13
13,F28N,-0.647 ± 0.37
14,F28S,-0.361 ± 0.077
15,F28R,-0.898 ± 0.1
16,C24E,-1.03 ± 0.19
17,C24M,-1.04 ± 0.24
18,C24L,-0.581 ± 0.092
19,C24S,-0.867 ± 0.14
20,C24D,-0.252 ± 0.18
21,C24A,-0.983 ± 0.15
22,C24W,-1.11 ± 0.19
23,C24N,-0.632 ± 0.17
24,C24V,-1.01 ± 0.13

row,Variant,abundance fitness
1,C24P,-0.878 ± 0.2
2,C24H,-0.67 ± 0.28
3,C24R,-0.855 ± 0.11
4,C24K,-1.03 ± 0.34
5,C24Q,-1 ± 0.44
6,G34W,-0.165 ± 0.092
7,G34E,-0.013 ± 0.089
8,G34C,-0.151 ± 0.099
9,G34M,-0.098 ± 0.092
10,G34L,-0.131 ± 0.06
11,G34Q,-0.043 ± 0.099
12,G34F,0.071 ± 0.085
13,G34A,-0.099 ± 0.06
14,G34I,-0.103 ± 0.087
15,G34S,-0.074 ± 0.048
16,G34R,0.032 ± 0.054
17,G34N,0.042 ± 0.08
18,G34T,-0.064 ± 0.056
19,G34H,-0.078 ± 0.069
20,G34V,-0.102 ± 0.049
21,G34K,-0.104 ± 0.073
22,V19E,0.032 ± 0.056
23,V19G,-0.082 ± 0.035
24,V19M,0.115 ± 0.075

row,Variant,abundance fitness
1,V19Q,-0.02 ± 0.064
2,V19R,-0.019 ± 0.038
3,V19N,0.112 ± 0.082
4,V19A,0.029 ± 0.048
5,V19F,0.047 ± 0.076
6,V19C,-0.108 ± 0.067
7,V19W,-0.058 ± 0.05
8,V19Y,-0.247 ± 0.11
9,V19T,-0.113 ± 0.056
10,V19K,0.007 ± 0.051
11,V19I,-0.086 ± 0.079
12,V19H,-0.091 ± 0.087
13,V19S,0.038 ± 0.053
14,V19P,0.001 ± 0.058
15,V19D,-0.008 ± 0.11
16,V32D,-0.035 ± 0.2
17,V32M,0.114 ± 0.15
18,V32R,-0.095 ± 0.082
19,V32G,-0.228 ± 0.19
20,V32A,0.023 ± 0.1
21,V32Q,-0.017 ± 0.12
22,V32H,-0.158 ± 0.14
23,V32N,-0.08 ± 0.13
24,V32W,-0.24 ± 0.14

row,Variant,abundance fitness
1,V32E,-0.004 ± 0.22
2,V32F,-0.013 ± 0.077
3,V32P,-0.682 ± 0.25
4,V32I,0.019 ± 0.1
5,V32K,-0.004 ± 0.18
6,V32Y,-0.1 ± 0.1
7,H36A,0.025 ± 0.03
8,H36D,0.005 ± 0.041
9,H36C,-0.042 ± 0.042
10,H36G,-0.012 ± 0.027
11,H36F,-0.023 ± 0.045
12,H36E,-0.004 ± 0.038
13,G17P,-0.175 ± 0.083
14,G17M,-0.055 ± 0.057
15,G17R,-0.046 ± 0.04
16,G17S,-0.044 ± 0.045
17,G17Q,-0.065 ± 0.06
18,G17H,-0.208 ± 0.15
19,G17D,-0.031 ± 0.086
20,G17I,-0.24 ± 0.16
21,G17C,-0.049 ± 0.1
22,G17W,-0.169 ± 0.062
23,G17T,-0.073 ± 0.064
